Consider 8 compounds from paper PMC8292405, “Functional expression of the eukaryotic proton pump rhodopsin OmR2 in Escherichia coli and its photochemical characterization” (Scientific Reports, 2021).

For series [1], the target named is T1, OmR2 (O. marina rhodopsin-2) (Oxyrrhis marina, UniProt A0A0B4P477).
T1 construct: full-length, codon-optimized synthetic gene, C-terminal His6 tag kept; expressed in E. coli BL21(DE3) (pET21a) and in HEK293T; purified in DDM micelles
The experiment in a line: absorption spectroscopy; HPLC of retinal oximes. In kind it is binding. The conditions noted are these: covalent; protonated Schiff base (Lys213); 50 mM Tris-HCl pH 7.0, 1 M NaCl, 0.05% DDM.

For another series, the target named is Asp81 (UniProt position 81, YARYIDWVLTT). The conditions noted are these: not stated (counterion of the protonated Schiff base); cited from earlier work.
The target in series [2] is Asp95 (UniProt position 95, YARYADWLFTT). As to conditions: not stated (counterion of the protonated Schiff base); cited from earlier work.
The target in another series is Asp85 (UniProt position 98, WARYADWLFTT). As to conditions: not stated (counterion of the protonated Schiff base); cited from earlier work.
Another series relates to Asp100. The conditions noted are these: not stated (counterion of the protonated Schiff base); cited from earlier work.
The next series deals with Asp88. The experiment in a line: UV-vis. As to conditions: room temperature (approx. 25 °C), 1 M NaCl, Buffer A: 50 mM Tris-HCl, 0.05% (w/v) DDM, pH adjusted by adding HCl, Unphotolysed state under room light, all-trans retinal bound with protonated Schiff base, folded (reversibility of the spectral changes was checked).
A further series deals with Asp97 (UniProt position 97, VFRYIDWLLTV). As to conditions: not stated (counterion of the protonated Schiff base); cited from earlier work.
For series [3], the target named is Asp95 (UniProt position 95, FYRYADWLLTV). As to conditions: not stated (counterion of the protonated Schiff base); cited from earlier work.

T1 sequence (A0A0B4P477 entry or part of it): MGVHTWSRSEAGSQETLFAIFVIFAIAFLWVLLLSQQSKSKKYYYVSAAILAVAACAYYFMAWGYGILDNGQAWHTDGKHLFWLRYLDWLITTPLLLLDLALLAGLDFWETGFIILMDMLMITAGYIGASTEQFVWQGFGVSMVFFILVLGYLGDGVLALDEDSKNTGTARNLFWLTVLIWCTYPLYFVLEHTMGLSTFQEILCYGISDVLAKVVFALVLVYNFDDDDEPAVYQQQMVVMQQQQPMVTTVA

Regarding `CC1=C(/C=C/C(C)=C/C=C/C(C)=C/C=O)C(C)(C)CCC1` [all-trans retinal], in series [1], the “absorption spectroscopy; HPLC of retinal oximes” value is “This indicates that OmR2 possesses all-trans retinal regardless of the light environment”. Take “Acetabularia rhodopsin II (ARII) (Acetabularia acetabulum)”: in the series with Asp81, the pKa was 2.6. As to “Archaerhodopsin-3 (AR3) (Halorubrum sodomense)”, the pKa with Asp95 [2] was 3.1. Consider “Bacteriorhodopsin (BR) (Halobacterium salinarum)”, for which the pKa in the series with Asp85 was 2.6. Regarding “Oxyrrhis marina rhodopsin-1 (OmR1, OR1) (Oxyrrhis marina)”, the pKa in the series with Asp100 was 4. As for “Oxyrrhis marina rhodopsin-2 (OmR2) (Oxyrrhis marina)”, the pKa in the series on Asp88 came out at 3.0 ± 0.04.

Turning to “Proteorhodopsin (PR, green-absorbing) (uncultured marine gamma-proteobacterium (EBAC31A08))”, the pKa in the series with Asp97 is 7.5. As to “Thermophilic rhodopsin (TR) (Thermus thermophilus)”, the pKa with Asp95 [3] is on record as 3.4.

What is called pKa is the pH at which an ionisable group is half protonated.
